Literature values as cited in patent US12576131B2, “Altering inflammatory states of immune cells in vivo by modulating cellular activation states” (Fred Hutchinson Cancer Center, priority 2018, dated 2026).

System: IRF8 responsive genes
Conditions: mutation of the K310 residue prevents SUMO binding

B1: murine IRF8 mutant: murine IRF8 with substitution of Lysine (K) at residue 310 with Arginine (R), SEQ ID NO: 17 (protein)
chain: MCDRNGGRRLRQWLIEQIDSSMYPGLIWENDEKTMFRIPWKHAGKQDYNQEVDASIFKAWAVFKGKFKEGDKAEPATWKTRLRCALNKSPDFEEVTDRSQLDISEPYKVYRIVPEEEQKCKLGVAPAGCMSEVPEMECGRSEIEELIKEPSVDEYMGMTKRSPSPPEACRSQILPDWWVQQPSAGLPLVTGYAAYDTHHSAFSQMVISFYYGGKLVGQATTTCLEGCRLSLSQPGLPKLYGPDGLEPVCFPTADTIPSERQRQVTRKLFGHLERGVLLHSNRKGVFVKRLCQGRVFCSGNAVVCKGRPNRLERDEVVQVFDTNQFIRELQQFYATQSRLPDSRVVLCFGEEFPDTVPLRSKLILVQVEQLYARQLVEEAGKSCGAGSLMPALEEPQPDQAFRMFPDICTSHQRPFFRENQQITV
increase in IRF8 specific gene transcription: 2-5 fold
